Laboratory results as given in patent publication US20170137895, “METHODS OF IDENTIFYING ENZYMES AND MICROORGANISMS” (ZYMONOSTICS APS, published 2017).

Experiments:
[1] = molecular target: HIV integrase (Human immunodeficiency virus, UniProt P04585 P04585:1148-1435); assay: integration of LTR into dsDNA SEQ:12/SEQ:13; MES pH 6.2, 200 mM KCl, 10 mM MnCl2, 10 mM DTT, 37 C; conditions: tags: His-tag (pTrcHis), E. coli BL21
[2] = molecular target: T1, Mycobacterium smegmatis topoisomerase I (msTopoI) (Mycobacterium smegmatis, UniProt A0R5D9 A0R5D9:2-936); assay: ligation of SEQ:16 oligo to substrate; binding in 1 mM EDTA, 300 mM NaCl, 37 C, then 5 mM MgCl2; no numeric result given
T1 sequence: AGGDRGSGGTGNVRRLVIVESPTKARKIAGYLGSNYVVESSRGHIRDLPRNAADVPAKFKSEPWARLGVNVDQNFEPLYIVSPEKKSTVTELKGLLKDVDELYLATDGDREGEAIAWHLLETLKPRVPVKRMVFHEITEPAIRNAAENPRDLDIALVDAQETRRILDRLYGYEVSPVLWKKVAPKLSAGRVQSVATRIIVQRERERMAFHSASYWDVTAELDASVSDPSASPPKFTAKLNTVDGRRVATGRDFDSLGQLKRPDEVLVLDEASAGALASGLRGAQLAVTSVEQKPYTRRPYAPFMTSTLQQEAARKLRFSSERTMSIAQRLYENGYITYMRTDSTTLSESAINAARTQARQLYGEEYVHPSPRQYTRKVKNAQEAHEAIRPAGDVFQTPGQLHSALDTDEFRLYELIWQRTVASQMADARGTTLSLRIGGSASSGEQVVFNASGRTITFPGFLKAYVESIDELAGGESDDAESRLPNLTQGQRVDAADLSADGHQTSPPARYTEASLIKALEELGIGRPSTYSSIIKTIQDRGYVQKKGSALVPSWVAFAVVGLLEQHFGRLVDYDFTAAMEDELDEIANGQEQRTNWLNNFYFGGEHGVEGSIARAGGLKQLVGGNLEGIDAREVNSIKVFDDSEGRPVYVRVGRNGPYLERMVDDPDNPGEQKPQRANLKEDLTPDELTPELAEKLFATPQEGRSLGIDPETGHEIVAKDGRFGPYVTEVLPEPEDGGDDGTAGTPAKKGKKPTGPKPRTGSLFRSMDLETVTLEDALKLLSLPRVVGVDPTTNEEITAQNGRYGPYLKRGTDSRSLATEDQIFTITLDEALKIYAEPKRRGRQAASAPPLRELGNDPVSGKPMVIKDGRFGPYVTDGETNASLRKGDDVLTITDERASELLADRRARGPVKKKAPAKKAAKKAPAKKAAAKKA
Experimental: Prepare a solution containing msTopol as well as 10 mM Tris-HCl (pH 7.5), 1 mM EDTA, and 300 mM NaCl. Add 5 μL to each printed area (see previous section). Incubate for 1 h at 37° C. in humidity chamber. Wash 3×5 minutes in wash buffer 4. To each printed are, add 5 μL of ligation mixture: 2 μM oligonucleotide ([Btn]CAGTGAGCGTCTGGCTGAAGCTTCCGCT; SEQ ID No: 16); 300 mM NaCl; 1 mM Tris-HCl (pH 7.5); 5 mM MgCl₂. Incubate at 37° C. for 1 h in humidity chamber. Wash for 1 min in wash buffer 2, 1 min in wash buffer 3, and 1 min in 96% ethanol. Let the slide air-dry.

B1: HIV LTR substrate (dsDNA)
DNA 1: TTTAGTCAGTGTGGAAAATCTCTAGCAGT
DNA 2: ACTGCTAGAGATTTTCCACACTGACTAAA
modifications: 5' amino-C6-T on both strands, SEQ:6 strand immobilised
binding result [1]: binds

CAGTGAGCGAGCTTCCGCTTGACATCCCAATAGTTTCTCTTC (ssDNA, 3' amino-C6, immobilised on CodeLink slide) [msTopoI substrate]
binding result [2]: binds
